Measured values taken from paper PMC7953810, “Divergent CPEB prion-like domains reveal different assembly mechanisms for a generic amyloid-like fold” (BMC Biology, 2021).
Values belong to the binder of their own block, whether it stands above or below them.

Target: T1, peptide DQ, ApCPEB PLD residues 121-140 with an N-terminal dansyl moiety (Aplysia californica, dansyl moiety (D*) on the N-terminus)
T1 construct: source: synthetic peptide, bought: GenScript
T1 peptide: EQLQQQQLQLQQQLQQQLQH
Assay: FRET or BRET + other: 1D 1H NMR; 20-mer peptides at 5 °C in 10 mM KH2PO4; excitation of Trp at 280 nm, dansyl emission at 530-550 nm; 1D 1H NMR with DSS as concentration standard
Details: both partners purified

- binding result: binds
B1: peptide QW, ApCPEB PLD residues 121-140 with a C-terminal Trp (peptide)
peptide: EQLQQQQLQLQQQLQQQLQHW
notes: Trp added at the C-terminus (excited at 280 nm as the fluorescence donor); Wild-type stretch with one added Trp as a fluorescence probe; source: synthetic peptide, bought: GenScript

- binding result: binds
B2: peptide WQ, ApCPEB PLD residues 121-140 with an N-terminal Trp (peptide)
peptide: WEQLQQQQLQLQQQLQQQLQH
notes: Trp added at the N-terminus (excited at 280 nm as the fluorescence donor); Wild-type stretch with one added Trp as a fluorescence probe; source: synthetic peptide, bought: GenScript
